# In publication PMC5308896, “A conformational switch regulates the ubiquitin ligase HUWE1” (eLife, 2017):
# Ends that are not written are not given here.
# Experiments:
# Assay in all cases: fluorescence polarisation; apparent KD; constant 1 μM TAMRA-labelled p14ARF (45–64) peptide titrated with HUWE1 protein; 25°C, 20 mM HEPES pH 8.0, 150 mM NaCl, 10% glycerol, 1 mM EDTA, 5 mM DTT; three independent experiments
# Details in all cases: both partners purified
# HUWE1 (3896–4374) = target: T1, HUWE1 (3896–4374) (human, UniProt Q7Z6Z7 3896-4374)
# T1 construct: source: LOBSTR RIL cells, purified (IMAC, gel filtration)
# T1 sequence (looked up): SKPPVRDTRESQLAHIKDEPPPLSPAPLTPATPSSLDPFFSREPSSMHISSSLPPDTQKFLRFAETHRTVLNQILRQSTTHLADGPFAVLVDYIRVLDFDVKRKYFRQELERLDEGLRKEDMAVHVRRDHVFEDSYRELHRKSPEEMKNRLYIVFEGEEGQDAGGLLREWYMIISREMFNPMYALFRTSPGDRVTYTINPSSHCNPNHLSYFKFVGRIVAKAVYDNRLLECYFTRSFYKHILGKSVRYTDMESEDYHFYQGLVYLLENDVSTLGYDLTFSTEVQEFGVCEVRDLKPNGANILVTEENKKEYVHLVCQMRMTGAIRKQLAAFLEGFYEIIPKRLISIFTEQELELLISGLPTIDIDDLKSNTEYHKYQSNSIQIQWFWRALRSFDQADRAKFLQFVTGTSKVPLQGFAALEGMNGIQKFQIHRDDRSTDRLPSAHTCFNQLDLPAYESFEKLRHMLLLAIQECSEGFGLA
# HUWE1 (3843–4374) = target: T2, HUWE1 (3843–4374) (human, UniProt Q7Z6Z7 3843-4374)
# T2 construct: source: LOBSTR RIL cells, purified (IMAC, gel filtration)
# T2 sequence (looked up): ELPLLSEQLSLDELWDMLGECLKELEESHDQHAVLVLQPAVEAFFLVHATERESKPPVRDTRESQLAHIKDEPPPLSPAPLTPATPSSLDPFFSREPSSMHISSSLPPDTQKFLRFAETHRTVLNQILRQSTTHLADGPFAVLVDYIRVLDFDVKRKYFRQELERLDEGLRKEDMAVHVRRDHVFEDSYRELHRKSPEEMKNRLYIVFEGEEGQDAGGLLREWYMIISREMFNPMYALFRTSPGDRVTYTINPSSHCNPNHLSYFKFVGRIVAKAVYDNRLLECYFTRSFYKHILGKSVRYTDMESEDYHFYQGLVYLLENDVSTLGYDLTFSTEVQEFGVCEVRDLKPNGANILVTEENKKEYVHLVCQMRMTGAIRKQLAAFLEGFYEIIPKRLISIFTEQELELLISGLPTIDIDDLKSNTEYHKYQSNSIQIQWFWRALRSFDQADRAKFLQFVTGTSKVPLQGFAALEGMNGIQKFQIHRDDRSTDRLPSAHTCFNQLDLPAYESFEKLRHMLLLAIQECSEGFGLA
# [1] = target: T3, MBP-tagged activation segment of HUWE1 (residues 3843–3902) (human, UniProt Q7Z6Z7 3843-3902)
# T3 construct: pETM41: N-terminal TEV protease-cleavable MBP-tag, C-terminal 3C protease-cleavable His6-tag; source: E. coli BL21(DE3), purified (IMAC, gel filtration); not shown: MBP, N-terminal, kept; His6, C-terminal, kept
# T3 sequence (looked up): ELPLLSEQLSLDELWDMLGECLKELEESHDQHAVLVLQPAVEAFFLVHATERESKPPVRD
binder,measurement,setting,value
"LVLMLLRSQRLGQQPLPRRPK(TAMRA) (p14ARF (alternative reading frame product of CDKN2A), human, residues 45–64; additional lysine residue at the C-terminus that carries the TAMRA label (told in words); also called p14ARF-peptide; p14ARF (45-64); source: synthetic peptide, bought: Elim Biopharm) [fluorophor-labeled p14ARF-derived peptide (residues 45–64), TAMRA-labelled]",Kd,HUWE1 (3896–4374),340 ± 60 µM
same,Kd,HUWE1 (3843–4374),5.2 ± 0.2 µM
same,Kd,[1],3.6 ± 0.2 µM
